These results are taken from publication PMC12098889, “Structural insight into PIF6-mediated red light signal transduction of plant phytochrome B” (Cell Discovery, 2025).

Data set [1] deals with phytochrome B (phyB), full length (1‒1172) (Arabidopsis) (UniProt P14713).
In data set [2] the target is PIF6β (1‒182) (Arabidopsis). The experiment in a line: cryo-EM structure; phyB and PIF6β mixed ~1:1.5, on ice under red light (665 nm, 800 μmol m^-2 s^-1), SEC in 25 mM HEPES pH 7.8, 250 mM KCl, 10 mM DTT, 1 mM EDTA; irradiated with red light 20 min before freezing.
In data set [3] the target is T1, phyB^Y276H, full length (Arabidopsis, UniProt P14713 1-1172, Y276H, PΦB chromophore covalently bound).
T1 construct: Arabidopsis phytochrome B, residues 1-1172, At2g18790, with Y276H; also called constitutively active mutant phyB^Y276H; source: E. coli BL21(DE3), co-expressed with HO1 and HY2, purified (Ni-NTA, anti-FLAG resin, Source Q); not shown: 3× Flag ([residues removed]), N-terminal, kept
T1 sequence (looked up): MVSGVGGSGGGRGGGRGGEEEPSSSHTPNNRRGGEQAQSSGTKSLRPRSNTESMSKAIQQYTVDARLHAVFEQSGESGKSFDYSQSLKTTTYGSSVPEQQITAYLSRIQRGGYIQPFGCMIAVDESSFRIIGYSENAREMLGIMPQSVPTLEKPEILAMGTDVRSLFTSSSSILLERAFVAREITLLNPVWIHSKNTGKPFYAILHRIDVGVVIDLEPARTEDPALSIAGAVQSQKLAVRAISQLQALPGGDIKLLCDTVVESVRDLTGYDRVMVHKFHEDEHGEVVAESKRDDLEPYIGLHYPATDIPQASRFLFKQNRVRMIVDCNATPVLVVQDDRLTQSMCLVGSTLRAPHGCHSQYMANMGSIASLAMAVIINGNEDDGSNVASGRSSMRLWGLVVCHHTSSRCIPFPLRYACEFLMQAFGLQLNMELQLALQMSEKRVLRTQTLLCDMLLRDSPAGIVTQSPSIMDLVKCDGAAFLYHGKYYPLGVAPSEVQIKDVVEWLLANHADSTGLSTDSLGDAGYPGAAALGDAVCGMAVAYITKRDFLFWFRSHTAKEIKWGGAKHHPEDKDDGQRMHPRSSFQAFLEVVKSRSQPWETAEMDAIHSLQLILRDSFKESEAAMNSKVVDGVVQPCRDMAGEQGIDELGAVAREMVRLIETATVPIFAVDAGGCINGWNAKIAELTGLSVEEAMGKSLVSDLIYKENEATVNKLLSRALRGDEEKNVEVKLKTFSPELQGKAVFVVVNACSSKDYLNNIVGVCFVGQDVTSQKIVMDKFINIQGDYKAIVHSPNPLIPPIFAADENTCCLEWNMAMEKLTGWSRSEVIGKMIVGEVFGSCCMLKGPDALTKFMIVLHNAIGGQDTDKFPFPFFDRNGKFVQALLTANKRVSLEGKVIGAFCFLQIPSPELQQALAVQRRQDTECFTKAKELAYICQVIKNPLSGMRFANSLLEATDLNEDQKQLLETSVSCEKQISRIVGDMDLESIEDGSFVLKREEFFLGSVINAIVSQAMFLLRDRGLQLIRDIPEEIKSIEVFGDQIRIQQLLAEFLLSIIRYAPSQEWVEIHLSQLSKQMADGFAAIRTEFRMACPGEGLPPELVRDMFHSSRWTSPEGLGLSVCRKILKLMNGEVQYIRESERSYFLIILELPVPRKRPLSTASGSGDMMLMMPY
The experiment in a line: pull-down; StrepII-tagged PIF6 forms or PIFNs held on Strep-Tactin Sepharose, 3× Flag-phyB or phyB^Y276H in the mixture; in the dark, 4 °C, 2 h; buffer E (100 mM Tris-HCl pH 8.0, 150 mM NaCl, 1 mM EDTA); SDS-PAGE with Coomassie and zinc-induced fluorescence. As to conditions: both partners purified.

Data set [4] concerns the molecule itself. The experiment in a line: cross-linking; thiol-directed cross-linking with 1 mM M2M, ~2 μM protein, on ice 30 min, under red light (665 nm, 767 μmol m^-2 s^-1); 25 mM Tris-HCl pH 8.0, 150 mM NaCl; reversed by DTT; more cross-linked band with the PIF6 fragment 13-100.
Data set [5] deals with the molecule itself. As to the kind of experiment: cryo-EM structure; phyB^Y276H or phyBN^Y276H mixed with PIF6β ~1:1.5; full-length complex prepared in the dark; SEC on Superose 6 Increase before freezing.

As for PIF6β (1‒182) (natural protein), the Pfr→Pr thermal reversion at 25 °C: amount of phyB-Pfr remaining after 400 min with PIF6β against phyB alone in data set [1] came out at 8 fold. The molecule “phytochrome B (phyB), full length (1‒1172) (from UniProt P14713 1-1172) (receptor)” had a stoichiometry N (phyB per PIF6β) in data set [2] of 2.

B1: PIF6α (1‒363) (natural protein, Arabidopsis, UniProt Q8L5W7 1-363, looked up)
chain: MMFLPTDYCCRLSDQEYMELVFENGQILAKGQRSNVSLHNQRTKSIMDLYEAEYNEDFMKSIIHGGGGAITNLGDTQVVPQSHVAAAHETNMLESNKHVDDSETLKASSSKRMMVDYHNRKKIKFIPPDEQSVVADRSFKLGFDTSSVGFTEDSEGSMYLSSSLDDESDDARPQVPARTRKALVKRKRNAEAYNSPERNQRNDINKKMRTLQNLLPNSHKDDNESMLDEAINYMTNLQLQVQMMTMGNRFVTPSMMMPLGPNYSQMGLAMGVGMQMGEQQFLPAHVLGAGLPGINDSADMLRFLNHPGLMPMQNSAPFIPTENCSPQSVPPSCAAFPNQIPNPNSLSNLDGATLHKKSRKTNR
notes: Modified pCold TF vector; purified on Ni resin, so a His tag is likely present but is not described; also called full-length PIF6α; source: E. coli BL21(DE3), purified (Ni-NTA, Strep-Tactin, Source Q); not shown: StrepII, C-terminal, kept
Turning to B1, in data set [3], the binding result is reported as “binds”.

B2: phyB^T449C (with C925S, C936S, C972S and C1121S) (receptor, Arabidopsis, UniProt P14713 1-1172, looked up)
chain: MVSGVGGSGGGRGGGRGGEEEPSSSHTPNNRRGGEQAQSSGTKSLRPRSNTESMSKAIQQYTVDARLHAVFEQSGESGKSFDYSQSLKTTTYGSSVPEQQITAYLSRIQRGGYIQPFGCMIAVDESSFRIIGYSENAREMLGIMPQSVPTLEKPEILAMGTDVRSLFTSSSSILLERAFVAREITLLNPVWIHSKNTGKPFYAILHRIDVGVVIDLEPARTEDPALSIAGAVQSQKLAVRAISQLQALPGGDIKLLCDTVVESVRDLTGYDRVMVYKFHEDEHGEVVAESKRDDLEPYIGLHYPATDIPQASRFLFKQNRVRMIVDCNATPVLVVQDDRLTQSMCLVGSTLRAPHGCHSQYMANMGSIASLAMAVIINGNEDDGSNVASGRSSMRLWGLVVCHHTSSRCIPFPLRYACEFLMQAFGLQLNMELQLALQMSEKRVLRTQCLLCDMLLRDSPAGIVTQSPSIMDLVKCDGAAFLYHGKYYPLGVAPSEVQIKDVVEWLLANHADSTGLSTDSLGDAGYPGAAALGDAVCGMAVAYITKRDFLFWFRSHTAKEIKWGGAKHHPEDKDDGQRMHPRSSFQAFLEVVKSRSQPWETAEMDAIHSLQLILRDSFKESEAAMNSKVVDGVVQPCRDMAGEQGIDELGAVAREMVRLIETATVPIFAVDAGGCINGWNAKIAELTGLSVEEAMGKSLVSDLIYKENEATVNKLLSRALRGDEEKNVEVKLKTFSPELQGKAVFVVVNACSSKDYLNNIVGVCFVGQDVTSQKIVMDKFINIQGDYKAIVHSPNPLIPPIFAADENTCCLEWNMAMEKLTGWSRSEVIGKMIVGEVFGSCCMLKGPDALTKFMIVLHNAIGGQDTDKFPFPFFDRNGKFVQALLTANKRVSLEGKVIGAFCFLQIPSPELQQALAVQRRQDTESFTKAKELAYISQVIKNPLSGMRFANSLLEATDLNEDQKQLLETSVSSEKQISRIVGDMDLESIEDGSFVLKREEFFLGSVINAIVSQAMFLLRDRGLQLIRDIPEEIKSIEVFGDQIRIQQLLAEFLLSIIRYAPSQEWVEIHLSQLSKQMADGFAAIRTEFRMACPGEGLPPELVRDMFHSSRWTSPEGLGLSVSRKILKLMNGEVQYIRESERSYFLIILELPVPRKRPLSTASGSGDMMLMMPY
modifications: PΦB chromophore covalently bound
notes: Arabidopsis phytochrome B (1-1172) with T449C for cross-linking and C925S, C936S, C972S, C1121S against nonspecific cross-linking; source: E. coli BL21(DE3), purified
Take B2: the binding result in data set [4] is “binds”.

B3: phyB^Y276H/T449C (with C925S, C936S, C972S and C1121S) (receptor, Arabidopsis, UniProt P14713 1-1172, looked up)
chain: MVSGVGGSGGGRGGGRGGEEEPSSSHTPNNRRGGEQAQSSGTKSLRPRSNTESMSKAIQQYTVDARLHAVFEQSGESGKSFDYSQSLKTTTYGSSVPEQQITAYLSRIQRGGYIQPFGCMIAVDESSFRIIGYSENAREMLGIMPQSVPTLEKPEILAMGTDVRSLFTSSSSILLERAFVAREITLLNPVWIHSKNTGKPFYAILHRIDVGVVIDLEPARTEDPALSIAGAVQSQKLAVRAISQLQALPGGDIKLLCDTVVESVRDLTGYDRVMVHKFHEDEHGEVVAESKRDDLEPYIGLHYPATDIPQASRFLFKQNRVRMIVDCNATPVLVVQDDRLTQSMCLVGSTLRAPHGCHSQYMANMGSIASLAMAVIINGNEDDGSNVASGRSSMRLWGLVVCHHTSSRCIPFPLRYACEFLMQAFGLQLNMELQLALQMSEKRVLRTQCLLCDMLLRDSPAGIVTQSPSIMDLVKCDGAAFLYHGKYYPLGVAPSEVQIKDVVEWLLANHADSTGLSTDSLGDAGYPGAAALGDAVCGMAVAYITKRDFLFWFRSHTAKEIKWGGAKHHPEDKDDGQRMHPRSSFQAFLEVVKSRSQPWETAEMDAIHSLQLILRDSFKESEAAMNSKVVDGVVQPCRDMAGEQGIDELGAVAREMVRLIETATVPIFAVDAGGCINGWNAKIAELTGLSVEEAMGKSLVSDLIYKENEATVNKLLSRALRGDEEKNVEVKLKTFSPELQGKAVFVVVNACSSKDYLNNIVGVCFVGQDVTSQKIVMDKFINIQGDYKAIVHSPNPLIPPIFAADENTCCLEWNMAMEKLTGWSRSEVIGKMIVGEVFGSCCMLKGPDALTKFMIVLHNAIGGQDTDKFPFPFFDRNGKFVQALLTANKRVSLEGKVIGAFCFLQIPSPELQQALAVQRRQDTESFTKAKELAYISQVIKNPLSGMRFANSLLEATDLNEDQKQLLETSVSSEKQISRIVGDMDLESIEDGSFVLKREEFFLGSVINAIVSQAMFLLRDRGLQLIRDIPEEIKSIEVFGDQIRIQQLLAEFLLSIIRYAPSQEWVEIHLSQLSKQMADGFAAIRTEFRMACPGEGLPPELVRDMFHSSRWTSPEGLGLSVSRKILKLMNGEVQYIRESERSYFLIILELPVPRKRPLSTASGSGDMMLMMPY
modifications: PΦB chromophore covalently bound
notes: Arabidopsis phytochrome B (1-1172) with Y276H, T449C and C925S, C936S, C972S, C1121S; source: E. coli BL21(DE3), purified
Turning to B3, the binding result in data set [4] is reported as “binds”.

B4: phyBN^Y276H (1‒908) (domain or fragment, Arabidopsis, UniProt P14713 1-908, looked up)
chain: MVSGVGGSGGGRGGGRGGEEEPSSSHTPNNRRGGEQAQSSGTKSLRPRSNTESMSKAIQQYTVDARLHAVFEQSGESGKSFDYSQSLKTTTYGSSVPEQQITAYLSRIQRGGYIQPFGCMIAVDESSFRIIGYSENAREMLGIMPQSVPTLEKPEILAMGTDVRSLFTSSSSILLERAFVAREITLLNPVWIHSKNTGKPFYAILHRIDVGVVIDLEPARTEDPALSIAGAVQSQKLAVRAISQLQALPGGDIKLLCDTVVESVRDLTGYDRVMVHKFHEDEHGEVVAESKRDDLEPYIGLHYPATDIPQASRFLFKQNRVRMIVDCNATPVLVVQDDRLTQSMCLVGSTLRAPHGCHSQYMANMGSIASLAMAVIINGNEDDGSNVASGRSSMRLWGLVVCHHTSSRCIPFPLRYACEFLMQAFGLQLNMELQLALQMSEKRVLRTQTLLCDMLLRDSPAGIVTQSPSIMDLVKCDGAAFLYHGKYYPLGVAPSEVQIKDVVEWLLANHADSTGLSTDSLGDAGYPGAAALGDAVCGMAVAYITKRDFLFWFRSHTAKEIKWGGAKHHPEDKDDGQRMHPRSSFQAFLEVVKSRSQPWETAEMDAIHSLQLILRDSFKESEAAMNSKVVDGVVQPCRDMAGEQGIDELGAVAREMVRLIETATVPIFAVDAGGCINGWNAKIAELTGLSVEEAMGKSLVSDLIYKENEATVNKLLSRALRGDEEKNVEVKLKTFSPELQGKAVFVVVNACSSKDYLNNIVGVCFVGQDVTSQKIVMDKFINIQGDYKAIVHSPNPLIPPIFAADENTCCLEWNMAMEKLTGWSRSEVIGKMIVGEVFGSCCMLKGPDALTKFMIVLHNAIGGQDTDKFPFPFFDRNGKFVQALLTANKRVSLEGKVIGAFCFLQIPS
modifications: PΦB chromophore covalently bound
notes: Arabidopsis phytochrome B, residues 1-908, with Y276H; also called HKRD-truncated phyBN^Y276H; truncated phyBN^Y276H (M1‒S908); source: E. coli BL21(DE3), co-expressed with HO1 and HY2, purified; not shown: 3× Flag, N-terminal, kept
Turning to B4, the binding result in data set [5] is given as “binds”.
